Laboratory results from patent publication US20230045791A1 (HIFIBIO, published 2023).
Blank lines part the entries; values can stand above or below the binder they belong to.

Legend:
[1] = biological target: T1, His-tagged recombinant human TNFR1 (human, UniProt P19438 30-211, limits assumed); test: ELISA on recombinant hTNFR1-His
T1 construct: also called rhTNFR1; hTNFR1-His; not shown: His tag
T1 sequence (looked up): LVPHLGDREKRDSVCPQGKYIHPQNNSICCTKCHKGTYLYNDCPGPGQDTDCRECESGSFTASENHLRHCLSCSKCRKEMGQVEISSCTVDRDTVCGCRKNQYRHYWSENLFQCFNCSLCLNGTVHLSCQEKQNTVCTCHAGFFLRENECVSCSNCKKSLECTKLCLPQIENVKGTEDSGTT

[2] = biological target: T2, His-tagged recombinant human TNFR2 (human, UniProt P20333 23-257); test: ELISA on recombinant hTNFR2-His (FIG. 14A)
T2 construct: extracellular domain; also called rhTNFR2; hTNFR2-His; not shown: His tag
T2 sequence (looked up): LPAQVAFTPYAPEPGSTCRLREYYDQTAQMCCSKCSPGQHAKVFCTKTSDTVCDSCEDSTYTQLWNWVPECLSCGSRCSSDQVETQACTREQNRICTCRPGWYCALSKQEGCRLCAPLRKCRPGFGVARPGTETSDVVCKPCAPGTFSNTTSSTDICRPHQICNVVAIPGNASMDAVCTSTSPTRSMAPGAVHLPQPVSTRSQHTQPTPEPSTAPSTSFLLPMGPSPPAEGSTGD

[3] = biological target: T3, human TNFR2 expressed on cells (CHO.hHFB3 / CHO.hTNFR2 cells; primary human T cells) (human, UniProt P20333 23-461); test: flow cytometry on CHO cells expressing human TNFR2 (FIG. 12A)
T3 construct: whole, on cells
T3 sequence (looked up): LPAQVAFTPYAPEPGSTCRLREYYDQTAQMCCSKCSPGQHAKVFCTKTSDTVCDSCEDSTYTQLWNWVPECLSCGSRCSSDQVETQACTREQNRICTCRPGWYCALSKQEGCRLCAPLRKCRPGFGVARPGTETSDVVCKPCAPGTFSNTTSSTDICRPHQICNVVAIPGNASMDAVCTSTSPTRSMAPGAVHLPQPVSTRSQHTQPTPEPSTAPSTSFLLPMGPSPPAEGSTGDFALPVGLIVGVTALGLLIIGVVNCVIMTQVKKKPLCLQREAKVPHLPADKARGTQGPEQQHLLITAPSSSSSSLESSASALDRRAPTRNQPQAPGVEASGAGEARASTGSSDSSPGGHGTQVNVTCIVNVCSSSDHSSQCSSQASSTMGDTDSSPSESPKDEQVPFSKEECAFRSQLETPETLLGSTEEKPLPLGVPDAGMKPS

[4] = biological target: T4, mouse TNFR2 expressed on CHO cells (mouse, UniProt P25119 23-474); test: flow cytometry on CHO cells expressing mouse TNFR2
T4 construct: whole, on cells; also called mouse ortholog
T4 sequence (looked up): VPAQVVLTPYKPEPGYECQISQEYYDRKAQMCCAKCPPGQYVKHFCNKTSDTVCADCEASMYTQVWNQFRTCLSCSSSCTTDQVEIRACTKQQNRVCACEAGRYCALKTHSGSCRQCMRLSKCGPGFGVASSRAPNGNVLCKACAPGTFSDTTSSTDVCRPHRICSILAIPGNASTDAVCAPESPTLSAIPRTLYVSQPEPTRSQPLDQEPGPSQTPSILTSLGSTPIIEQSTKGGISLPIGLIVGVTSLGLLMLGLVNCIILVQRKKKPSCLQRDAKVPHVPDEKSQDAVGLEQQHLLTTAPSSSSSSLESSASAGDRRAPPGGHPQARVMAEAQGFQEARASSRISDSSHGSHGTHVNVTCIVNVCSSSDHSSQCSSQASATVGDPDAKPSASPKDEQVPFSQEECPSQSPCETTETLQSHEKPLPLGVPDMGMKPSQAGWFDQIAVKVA
Protocol: (§1) These monoclonal antibodies were then tested for their abilities to bind human and monkey TNFR2 expressed by CHO cells (CHO.hHFB3 and CHO.mkHFB3 cells respectively). Briefly, about 40,000 CHO.hHFB3 or CHO.mkHFB3 cells were seeded in tissue culture wells, and serial 1:3 dilutions of each test antibodies, with starting (highest) concentration of about 66 nM antibody, were added to each cell type and incubated for about an hour. Antibodies bound to the cells were detected by using 17 nM of anti-human Fc antibody labeled by AF647 (ALEXSA FLUOR® 647 fluorescent dye). An isotype matched negative control antibody was also used in this assay. The data, including EC₅₀ values and Eₘₐₓ for each antibody, were compiled in FIG. 2A.
The same experiments were also set up to test the ability of the test antibodies to bind CHO cells expressing mouse TNFR2 and the parental CHO cell lines (which may or may not express hamster TNFR2).

[5] = biological target: T1, His-tagged recombinant human TNFR1; test: ELISA, plate coated with 0.1 µg/mL His-tagged recombinant human TNFR1
Protocol: (§2) Briefly, tissue culture plates were coated with either 0.1 μg/mL of His-tagged recombinant human TNFR2 or TNFR1 overnight at 4° C. The coated plates were then incubated for about 1 hour on ice with 1:3 serial dilutions of each test antibodies, with starting (highest) concentration of about 66 nM antibody. Antibodies bound to the cells were detected by using 1:5000 dilution of HRP-labeled anti-human Fc antibody and TMB substrate. Isotype matched negative control antibody F3, as well as the MR2-1 positive control antibody specific for rhTNFR2 and a positive control antibody specific for rhTNFR1 were also used in this assay. The data, including EC₅₀ values for each antibody, were compiled in FIG. 4A.

[6] = biological target: T2, His-tagged recombinant human TNFR2; test: ELISA, plate coated with 0.1 µg/mL His-tagged recombinant human TNFR2, HRP anti-human Fc
Protocol: as §2

[7] = biological target: T3, human TNFR2 expressed on cells …; test: flow cytometry on CHO cells expressing human TNFR2 (CHO.hHFB3), anti-human Fc-AF647 detection
Protocol: as §1

B1: HFB3-18hz1-hG1 (humanized monoclonal antibody) (antibody, V domains shown)
VH: EVQLVESGGGLVQPGGSLKLSCAASGFTFSDAWMDWVRQASGKGLEWVGEVRNKANNHATYYAASVKGRFTISRDDSKNTAYLQMNSLKTEDTAVYYCTRSVGGYGTTYWYFDVWGQGTTVTVSS
VL: DIVMTQSPDSLAVSLGERATINCKSSQNLLNSGNQKNYLAWYQQKPGQPPKLLIFGASTRESGVPDRFSGSGSGTDFTLTISSLQAEDVAVYYCQSEHSYPYTFGQGTKLEIKR
binding result [1]: no binding
binding result [2]: binds
binding result [3]: binds

B2: HFB3-18-hG1 (mouse monoclonal antibody) (antibody, human IgG1, kappa, V domains shown)
VH: EVKLEESGGGLVQPGGSMKLSCAASGFTFSDAWMDWVRQSPEKGLEWVAEVRNKANNHATYYAESVKGRFTISRDDSKSSVYLQMNSLRAEDTGIYYCTRSVGGYGTTYWYFDVWGTGTTVTVSS
VL: DIVMTQSPSSLSVSAGEKVTMSCKSSQNLLNSGNQKNYLAWYQQKPGQPPKLLIFGASTRESGVPDRFTGSGSGTDFTLTISSVQAEDLAVYYCQSEHSYPYTFGGGTKLEIKR
notes: also called human-mouse chimeric monoclonal antibody HFB3-18
binding result [4]: binds
binding result [5]: no binding (tested: highest concentration about 66 nM)
binding result [6]: binds
binding result [7]: binds

B3: HFB3-14hz1c-hG1 (humanized monoclonal antibody) (antibody, V domains shown)
VH: QVQLVQSGAEVKKPGSSVKVSCKASGYTFTDYYMNWVRQAPGQGLEWMGDINPNDGGTTYAQKFQGRVTITADESTSTAYMELSSLRSEDTAVYFCAREGNYYAYDVRVWYFDVWGQGTTVTVSS
VL: DIQMTQSPSSLSASVGDRVTITCGASQDIITYLNWYQQKPGKAVKLLIYSTSSLNSGVPSRFSGSGSGTDFTLTISSLQPEDFATYYCQQYSELPYTFGGGTKVELKR
notes: also called HFB3-141c-hG1
binding result [1]: no binding

More lines, main results first:

binding result [6]: binds
binding result [7]: binds
B4: HFB3-1-hG1 (mouse monoclonal antibody) (antibody, human IgG1, kappa, V domains shown)
VH: EFQLQQSGPELVKPGASVKISCKASSYSFTDYNMNWVKQSNGKSLEWIGIIFPKYGTTSYNQKFKGKATLTVDQSSSTAYMQLNSLTSEDSAVYYCATDGGTWYFDVWGTGTTVTVSS
VL: QIVLTQSPALMSASPGEKVTMTCSASSSVTYMYWYQQKPRSSPKPWIYLTSNLASGVPARFSGSGSGTSYSLTISSMEAEDAATYYCQQWSSNPPTFGSGTKLEIKR
notes: also called human-mouse chimeric monoclonal antibody HFB3-1; parental HFB3-1-hG1
binding result [5]: no binding (tested: highest concentration about 66 nM)

binding result [1]: no binding
binding result [2]: binds
binding result [3]: binds
B5: HFB3-1hz6-hG1 (humanized monoclonal antibody) (antibody, V domains shown)
VH: QVQLVQSGAELKKPGASVKVSCKASSYSFTDYNMNWVRQAPGQSLEWMGIIFPKYGTTSYAQKLQGRVTLTTDTSTSTAYMELRSLRSDDTAVYYCATDGGTWYFDVWGTGTTVTVSS
VL: DIQLTQSPSFLSASVGDRVTITCRASSSVTYMYWYQQKPGKAPKPWIYLTSNLASGVPSRFSGSGSGTEYTLTISSLQPEDAATYYCQQWSSNPPTFGSGTKLEIKR
